According to patent publication US20020127684:

What was measured:
[1] = target: T1, GST-ATF2
T1 sequence (P15336 whole entry, species assumed, looked up): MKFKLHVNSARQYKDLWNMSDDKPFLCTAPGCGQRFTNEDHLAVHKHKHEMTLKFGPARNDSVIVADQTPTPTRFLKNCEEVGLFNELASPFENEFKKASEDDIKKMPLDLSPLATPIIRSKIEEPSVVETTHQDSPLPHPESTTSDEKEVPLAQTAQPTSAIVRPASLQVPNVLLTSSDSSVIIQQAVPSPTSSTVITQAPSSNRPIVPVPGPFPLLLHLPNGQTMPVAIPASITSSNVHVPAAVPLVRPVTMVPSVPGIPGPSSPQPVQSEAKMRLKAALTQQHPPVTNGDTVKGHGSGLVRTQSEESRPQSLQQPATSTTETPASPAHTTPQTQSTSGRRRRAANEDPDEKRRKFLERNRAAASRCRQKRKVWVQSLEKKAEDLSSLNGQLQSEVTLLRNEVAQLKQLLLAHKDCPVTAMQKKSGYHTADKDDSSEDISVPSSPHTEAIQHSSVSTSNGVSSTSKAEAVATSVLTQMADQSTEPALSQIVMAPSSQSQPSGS

[2] = target: H1 histone
[3] = target: Phas-1 (4E-BP-1)
[4] = target: myelin basic protein
myelin basic protein, sequence (P02687 whole entry): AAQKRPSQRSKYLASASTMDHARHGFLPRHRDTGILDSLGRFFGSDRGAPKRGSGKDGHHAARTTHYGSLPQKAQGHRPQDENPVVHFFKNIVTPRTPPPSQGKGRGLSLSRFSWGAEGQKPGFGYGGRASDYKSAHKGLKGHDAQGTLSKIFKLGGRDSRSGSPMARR

Measured: in vitro kinase assay with gamma-32P ATP: phosphorylation of heterologous substrate

B1: GST-CARK fusion protein (full length human CARK) (protein)
chain: MGNYKSRPTQTCTDEWKKKVSESYVITIERLEDDLQIKEKELTELRNIFGSDEAFSKVNLNYRTENGLSLLHLCCICGGKKSHIRTLMLKGLRPSRLTRNGFTALHLAVYKDNAELITSLLHSGADIQQVGYGGLTALHIATIAGHLEAADVLLQHGANVNIQDAVFFTPLHIAAYYGHEQVTRLLLKFGADVNVSGEVGDRPLHLASAKGFLNIAKLLMEEGSKADVNAQDNEDHVPLHFCSRFGHHDIVKYLLQSDLEVQPHVVNIYGDTPLHLACYNGKFEVAKEIIQISGTESLTKENIFSETAFHSACTYGKSIDLVKFLLDQNVININHQGRDGHTGLHSACYHGHIRLVQFLLDNGADMNLVACDPSRSSGEKDEQTCLMWAYEKGHDAIVTLLKHYKRPQDELPCNEYSQPGGDGSYVSVPSPLGKIKSMTKEKADILLLRAGLPSHFHLQLSEIEFHEIIGSGSFGKVYKGRCRNKIVAIKRYRANTYCSKSDVDMFCREVSILCQLNHPCVIQFVGACLNDPSQFAIVTQYISGGSLFSLLHEQKRILDLQSKLIIAVDVAKGMEYLHNLTQPIIHRDLNSHNILLYEDGHAVVADFGESRFLQSLDEDNMTKQPGNLRWMAPEVFTQCTRYTIKADVFSYALCLWEILTGEIPFAHLKPAAAAADMAYHHIRPPIGYSIPKPISSLLIRGWNACPEGRPEFSEVVMKLEECLCNIELMSPASSNSSGSLSPSSSSDCLVNRGGPGRSHVAALRSRFELEYALNARSYAALSQSAGQYSSQGLSLEEMKRSLQYTPIDKYGYVSDPMSSMHFHSCRNSSSFEDSS
phosphorylated: all assays above

B2: GST-CARK-KD fusion protein (CARK kinase domain, amino acid residues 424 to 835 of SEQ ID NO:2) (protein)
chain: SYVSVPSPLGKIKSMTKEKADILLLRAGLPSHFHLQLSEIEFHEIIGSGSFGKVYKGRCRNKIVAIKRYRANTYCSKSDVDMFCREVSILCQLNHPCVIQFVGACLNDPSQFAIVTQYISGGSLFSLLHEQKRILDLQSKLIIAVDVAKGMEYLHNLTQPIIHRDLNSHNILLYEDGHAVVADFGESRFLQSLDEDNMTKQPGNLRWMAPEVFTQCTRYTIKADVFSYALCLWEILTGEIPFAHLKPAAAAADMAYHHIRPPIGYSIPKPISSLLIRGWNACPEGRPEFSEVVMKLEECLCNIELMSPASSNSSGSLSPSSSSDCLVNRGGPGRSHVAALRSRFELEYALNARSYAALSQSAGQYSSQGLSLEEMKRSLQYTPIDKYGYVSDPMSSMHFHSCRNSSSFEDSS
phosphorylated: all assays above
